Laboratory results reported in patent US20250145722A1 (TRUEBINDING, published 2025).
Changes are numbered by the printed parent chain. Names and notes keep the numbering of the source.

B1: 19B5.2E6 (antibody, mouse IgG2a, V domains shown)
VH: QIQLVQSGPELKKPGETVKISCKASGYTFTTYAMSWVKQAPGKGLKWMGWINTYSGVPTYADDLKGRFAFSLETSASTAYLQINNLKNEDTATYFCARGPYAMDYWGQGTSVTVSS
VL: DIQMTQTTSSLSASLGDRVTISCSASQGINNYLNWYQQKPDGTVKLLIYYASSLHSGVPSRFSGSGSGTDYSLTISNLEPEDIATYYCQQYSQVPYTFGSGTKLEIKR
B2: 4A11.2B5 (antibody, human IgG4 S228P, kappa, V domains shown)
VH: QVQLQQSGPELVKPGASVKISCKASGYSFTNYYIHWVKQRPGQGLEWIGWIYPGSGNTNYNEKFKGKATLTADTSSSTTNMQLSSLTSEDSAVYYCSTAPGGFDVWGSGTTVTVSS
VL: DIVMTQAAFSNPVTLGTSASISCRSSKSLLHSDGITYLYWYLQRPGQSPQLLIYRMSNLASGVPDRFSGSGSGTDFTLRISRVEAEDVGVYYCAQMLEFPLTFGAGTKLELKR
B3: F846TC.14E4 (antibody, human IgG4 S228P, kappa, V domains shown)
VH: QVTLKESGPGILQPSQTLSLTCSFSGFSLSTSGMGVGWIRQPSGKGLEWLAHIWWDDDKYYNTALKSGLTISKDASKNQVFLKIASMDTADTATYYCARNLYDGSYGYYAMDYWGQGTSVTVSS
VL: DIVMTQAAFSNPVTLGTSASISCRSSKSLLHTNGITFLYWYLQKPGQSPQPLIYQMSNLASGVPDRFSSSGSGTDFTLRISRVEAEDVGVYYCAQNLELPWTFGGGTKLEINR
notes: also called 846T.14E4
B4: F847C.26F5 (antibody, human IgG4 S228P, kappa)
heavy: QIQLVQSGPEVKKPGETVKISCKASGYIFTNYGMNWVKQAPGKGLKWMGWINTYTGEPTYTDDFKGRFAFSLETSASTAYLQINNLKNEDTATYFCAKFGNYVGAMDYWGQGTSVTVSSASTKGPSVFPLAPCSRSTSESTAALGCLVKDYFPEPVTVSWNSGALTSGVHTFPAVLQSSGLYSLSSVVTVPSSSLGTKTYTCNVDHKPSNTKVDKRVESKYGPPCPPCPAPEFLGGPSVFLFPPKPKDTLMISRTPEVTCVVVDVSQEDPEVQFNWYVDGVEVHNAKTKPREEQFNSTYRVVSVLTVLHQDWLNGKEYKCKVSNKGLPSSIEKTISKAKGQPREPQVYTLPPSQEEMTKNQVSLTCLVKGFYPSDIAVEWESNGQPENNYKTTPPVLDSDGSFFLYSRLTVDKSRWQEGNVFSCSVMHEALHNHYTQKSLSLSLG
light: EIKMNQSPSSLSASLGDTITITCHASQNINVWLSWYQQKPGNIPKLLIYKASNLHTGVPSRFSGSGSGTGFTLTISSLQPEDIATYYCQQGQSYPYTFGGGTKLELKRTVAAPSVFIFPPSDEQLKSGTASVVCLLNNFYPREAKVQWKVDNALQSGNSQESVTEQDSKDSTYSLSSTLTLSKADYEKHKVYACEVTHQGLSSPVTKSFNRGEC
notes: also called 847.26F5
B5: 23H9.2E4 (antibody, V domains shown)
VH: B1 VH
VL: DIQMTQTTSSLSASLGDRVTISCSASQGINNYLNWYQQKPDGTVKLLIYYASSLHSGVPSRFSGSGSGTDYSLTISNLEPEDIATYYCQQYSQVPYTFGSGTKLEIK
B6: F849C.8D10 (antibody, human IgG4 S228P, kappa, V domains shown)
VH: QVQLQQTGAELVKPGASVKLSCKASGYTFTSYWINWVKQRPGQGLEWIGNIYPGSSSIYYSEKFKSKATLTVDTSSSTAYMQLSSLTSDDSAVYYCARWGYWGQGTTLTVSS
VL: DVLMTQTPLSLPVSLGDQASISCRSSQDIVHSSGNTYLEWYLQKPGQSLKLLIYKVSNRFSGVPDRFSASGSGTDFTLKISRVEAEDLGVYYCFQGSHVPPTFGSGTKLEIKR
notes: also called 849.8D10
B7: F846C.1F5 (antibody, human IgG4 S228P, kappa, V domains shown)
VH: QIQLVQSGPELKKPGETVKISCKASGYTFTNYGMNWVKQAPGKGLKWMGWINTYTGEPSYADDFKGRFAFSLETSASTAYLQINNLKNEDMATYFCARWGGYDGDYYAMDYWGQGTSVTVSS
VL: NIMMTQSPSSLAVSAGEKVTMSCKSSQSVLYSSNQKNYLAWYQQKPGQSPKLLIYWASTRESGVPDRFTGSGSGTDFTLTISSVQPEDLAVYYCHQYLSSLTFGAGTKLELKR
notes: also called 846.1F5
B8: F846C.2H3 (antibody, human IgG4 S228P, kappa, V domains shown)
VH: B7 VH
VL: B7 VL
notes: also called 846.2H3
B9: F846TC.16B5 (antibody, human IgG4 S228P, kappa, V domains shown)
VH: B7 VH with S59A
VL: B7 VL with P86A
notes: also called 846T.16B5
B10: F846C.1B2 (antibody, human IgG4 S228P, kappa, V domains shown)
VH: B7 VH with D103A, Y111F
VL: B7 VL with M3W, M4L, K18M, S22T, T78S, P86A
notes: also called 846.1B2
B11: F846TC.14A2 (antibody, human IgG4 S228P, kappa, V domains shown)
VH: QIQLVQSGPELKKPGETVKISCKASGYTFTNYGMNWVKQAPGKGLKWMGWINTYTGEPTYAGDLKGRFAFSLETSASTAYLQINNLKNEDTATYFCVRYTMDYWGQGTSVTVSS
VL: QAVVTQESALTTSPGETVTLTCRSSTGAVTTSNYANWVQEKPDHLFTGLIGGINNRVPGVPARFSGSLIGDKAALTITGAQTEDEAIYFCALWYSNHWVFGGGTKLTVLR
notes: also called 846T.14A2; 846.14A2
B12: F849C.8H3 (antibody, human IgG4 S228P, kappa, V domains shown)
VH: QVTLKESGPGILQPSQTLSLTCSFSGFSLSTFGMGVGWIRQPSGKGLEWLAHIWWDDDKHYNPALKSRLTISKDTSKNQVFLRIANVDTADNATYYCARIDYGDYVGFAYWGQGTLVTVSA
VL: B3 VL with V3G, T5R, H31Y, T32S, F37Y, Y41F, P51L, E86D, N112K
B13: F847C.4B10 (antibody, human IgG4 S228P, kappa, V domains shown)
VH: EVQLVETGGGLVKPGGSLKLSCAASGFTFSSYAMSWVRQTPEKRLEWVASISSGGSTYYPDSVKGRFTISRDNARNILYLQMSSLRSEDTAMYYCTRFTTVVEMDYWGQGTSVTVSS
VL: B11 VL with I53T, V57A, W98L
B14: F846C.1H12 (antibody, human IgG4 S228P, kappa, V domains shown)
VH: B7 VH with Y32F, M91I, D103A
VL: B7 VL with E17Q, N34S, T69S
notes: also called 846.1H12
B15: recombinant human TGF-beta sRII/Fc (R&D Systems, 341-BR) (Fc fusion, UniProt P37173 24-159, looked up, not shown: a dimerising Fc or GST)
chain: IPPHVQKSVNNDMIVTDNNGAVKFPQLCKFCDVRFSTCDNQKSCMSNCSITSICEKPQEVCVAVWRKNDENITLETVCHDPKLPYHDFILEDAASPKCIMKEKKKPGETFFMCSCSSDECNDNIIFSEEYNTSNPD
notes: also called TGFβ R2; TGFBR2
B16: recombinant human TGF-beta RI/ALK-5 Fc chimera protein (R&D Systems, 3025-BR) (Fc fusion, UniProt P36897 24-125, looked up, not shown: a dimerising Fc or GST)
chain: AAALLPGATALQCFCHLCTKDNFTCVTDGLCFVSVTETTDKVIHNSMCIAEIDLIPRDRPFVCAPSSKTGSVTTTYCCNQDHCNKIELPTTVKSSPGLGPVE
notes: also called TGFβ RI; TGFBR1
B17: F846C.1H5 (antibody, human IgG4 S228P, kappa, V domains shown)
VH: EVQLLESGGGLVKPGGSLKLSCAASGFTFSSYAMSWVRQTPEKRLEWVASISSGGDTYYPDSVKGRFTISRDNARNILYLQMSSLRSEDTAMYYCASYGNSLFDYWGQGTTLTVSS
VL: DVVMTQTPLSLPVSLGDQASISCRSSQSLVHNSGNTYLHWYLQRPGQSPNLLIYKVSNRFSGVPDRFSGSGSGTDFTLKISRVAAEDLGVYFCSQSTHVPPTFGGGTKLEIKR
B18: F846TC.7F10 (antibody, human IgG4 S228P, kappa, V domains shown)
VH: EVQLVESGGDLVKPGGSLKLSCAASGFTFSNYGLSWIRQTPDKRLEWVATISSGGSYTYYPDSVKGRFTISRDSAKNTLYLQMSSLKSEDTAMYYCARHAHYYGVSPYYFDYWGQGTCLTVSS
VL: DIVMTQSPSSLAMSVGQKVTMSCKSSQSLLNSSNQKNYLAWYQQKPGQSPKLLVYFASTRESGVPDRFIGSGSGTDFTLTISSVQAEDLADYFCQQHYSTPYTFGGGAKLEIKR
notes: also called 846T.7F10

Each binder was assayed against T1, human Galectin-3 (Gal3), full-length recombinant (human, UniProt P17931 2-250) (assay: cell-based or functional assay).
T1 sequence (P17931 2-250 limits assumed): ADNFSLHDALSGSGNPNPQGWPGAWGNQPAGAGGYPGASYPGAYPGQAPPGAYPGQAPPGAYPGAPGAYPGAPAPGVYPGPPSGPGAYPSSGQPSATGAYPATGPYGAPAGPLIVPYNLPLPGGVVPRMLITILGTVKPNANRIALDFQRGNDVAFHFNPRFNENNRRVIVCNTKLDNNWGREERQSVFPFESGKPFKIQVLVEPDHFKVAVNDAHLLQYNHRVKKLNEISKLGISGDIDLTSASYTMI

Binder | decrease in TGFβ induction of ColA1 mRNA in LX2 cells (qRT-PCR) [%]
B1 | 85
B2 | 58

These binders were tested against T1, human Galectin-3 (Gal3), full-length … (assay: blocking ELISA, Gal3 coated, TREM2-His).
Method: The plate was incubated for an hour at room temperature with gentle rocking. Thereafter, the plate was washed three times with PBST. Anti-6× His tag antibody-HRP (Abcam, ab1269) was then added to the wells at 1:3000 dilution in 2% BSA in PBST. The plate was incubated at room temperature for an hour with gentle rocking and then washed three times with PBST.

Binder | % blocking of Gal3-TREM2 binding [%]
B3 | > 90
B4 | < 47
B1 | > 90
B5 | > 90
B6 | > 90
B7 | > 90
B8 | > 90
B9 | > 90
B10 | > 90

The binders below were run against T1, human Galectin-3 (Gal3), full-length … (assay: blocking ELISA, Gal3 coated, biotin-TLR4).

Binder | % blocking of Gal3-TLR4 binding [%]
B3 | > 90
B1 | > 90
B5 | > 90
B11 | > 90
B6 | > 90
B7 | > 90
B8 | > 90
B9 | > 90
B10 | > 90

What follows are binders tested against T1, human Galectin-3 (Gal3), full-length … (assay: blocking ELISA, Gal3 coated, biotin-APP695).

Binder | % blocking of Gal3-APP695 binding [%]
B3 | > 90
B12 | > 90
B4 | 87
B1 | > 90
B11 | > 90
B13 | > 83
B6 | > 90
B7 | > 90
B8 | > 90
B14 | > 90
B9 | > 90
B10 | > 90

The binders below were run against T1, human Galectin-3 (Gal3), full-length … (assay: blocking ELISA, Gal3 coated, biotin-Tau aggregates).
Method: The plate was incubated for an hour at room temperature with gentle rocking. Thereafter, the plate was washed three times with PBST. […] The plate was incubated at room temperature for an hour with gentle rocking and then washed three times with PBST.

Binder | % blocking of Gal3-Tau aggregates binding [%]
B7 | > 90
B10 | > 90

Each binder was assayed against T1, human Galectin-3 (Gal3), full-length … (assay: blocking ELISA, Gal3 coated, biotin-Abeta42 peptide).

Binder | % blocking of Gal3-Abeta42 peptide binding [%]
B3 | > 90
B1 | > 90
B5 | < 46
B11 | > 90
B6 | > 90
B7 | > 90
B8 | > 90
B9 | > 90
B10 | > 90

The binders below were run against T1, human Galectin-3 (Gal3), full-length … (assay: blocking ELISA, Gal3 coated, biotin-Abeta42 oligomer).

Binder | % blocking of Gal3-Abeta42 oligomer binding [%]
B3 | > 90
B1 | > 90
B5 | < 26
B11 | > 90
B13 | < 26
B7 | > 90

The binders below were run against T1, human Galectin-3 (Gal3), full-length … (assay: SPR (Carterra LSA, HC30M chip with Protein A/G, receptor-Fc captured, Gal3 0-128 nM as analyte, 25 °C)).
Method: Briefly, kinetics experiment was performed on Caterra LSA at 25° C. A HC30M chip was immobilized with recombinant Protein A/G.
The complex was allowed to associate and dissociate for 300 s and 240 s, respectively. Eight cycles of kinetics were done sequentially for the dilution series.

Binder | Kd [nM] | koff [s⁻¹] | kon [M⁻¹ s⁻¹]
B15 | 725 | 0.0837 | 116000
B16 | 314 | 0.0351 | 112000

These binders were tested against T1, human Galectin-3 (Gal3), full-length … (assay: not stated. Exponent is printed without a minus sign; value taken as a negative power of ten because the column is a KD in M).

Binder | Kd [nM]
B3 | 0.556
B4 | 20.9
B11 | 3.26
B13 | 21.5
B6 | 3.75
B17 | 3.41
B18 | 1.4
B7 | 1.63
B8 | 1.72
B14 | 0.622
B9 | 0.927
B10 | 5.74
